Data as given in patent US20210388087A1 (Chugai, published 2021).
Substitutions are numbered along the chain they refer to. In names and notes the source's numbering stands. Values belong to the binder of their own block, whether it stands above or below them.

Biological target: T1, Human CD3eg linker (human)
T1 construct: Single-chain construct; also called recombinant human CD3
T1 chain: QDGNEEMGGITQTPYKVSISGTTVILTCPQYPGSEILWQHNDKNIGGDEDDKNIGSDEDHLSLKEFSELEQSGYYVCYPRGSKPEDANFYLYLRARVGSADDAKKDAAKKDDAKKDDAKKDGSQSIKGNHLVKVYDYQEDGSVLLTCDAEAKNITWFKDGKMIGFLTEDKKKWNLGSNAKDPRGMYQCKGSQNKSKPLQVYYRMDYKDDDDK
Test: SPR; fold vs parent H183/L072

B1: H183/L072 VL R54H (antibody, name in Kabat numbering, V domains shown)
VH: QVQLVESGGGLVQPGRSLRLSCAASGFTFSNAWMHWVRQAPGKGLEWVAQIKDKGNAYAAYYAPSVKGRFTISRDDSKNSIYLQMNSLKTEDTAVYYCHYVHYASASTVLPAFGVDAWGQGTTVTVSS
VL: DIVMTQSPLSLPVTPGEPASISCQASQELVHMNRNTYLHWYQQKPGQAPRLLIYKVSNHFPGVPDRFSGSGSGTDFTLKISRVEAEDVGVYYCAQGTSVPFTFGQGTKLEIK
- fold change of affinity: 1.9 fold

B3: H183/L072 VL S26D (antibody, name in Kabat numbering, V domains shown)
VH: B1 VH
VL: B1 VL with S26D, H59R
- fold change of affinity: 0.8 fold

B7: H183/L072 VL R54S (antibody, name in Kabat numbering, V domains shown)
VH: B1 VH
VL: B1 VL with H59S
- fold change of affinity: 1.2 fold

B8: H183/L072 VL R54I (antibody, name in Kabat numbering, V domains shown)
VH: B1 VH
VL: B1 VL with H59I
- fold change of affinity: 1.3 fold

B9: H183/L072 VL R54L (antibody, name in Kabat numbering, V domains shown)
VH: B1 VH
VL: B1 VL with H59L
- fold change of affinity: 1.3 fold

B11: H183/L072 VL R54W (antibody, name in Kabat numbering, V domains shown)
VH: B1 VH
VL: B1 VL with H59W
- fold change of affinity: 1.4 fold

B12: H183/L072 VL R54Q (antibody, name in Kabat numbering, V domains shown)
VH: B1 VH
VL: B1 VL with H59Q
- fold change of affinity: 1.2 fold

B17: H183/L072 VL R54P (antibody, name in Kabat numbering, V domains shown)
VH: B1 VH
VL: B1 VL with H59P
- fold change of affinity: 0.9 fold

B18: H183/L072 VL S26E (antibody, name in Kabat numbering, V domains shown)
VH: B1 VH
VL: B1 VL with S26E, H59R
- fold change of affinity: 0.7 fold

B22: H183/L072 VL R54N (antibody, name in Kabat numbering, V domains shown)
VH: B1 VH
VL: B1 VL with H59N
- fold change of affinity: 1 fold

B27: H183/L072 VL R54M (antibody, name in Kabat numbering, V domains shown)
VH: B1 VH
VL: B1 VL with H59M
- fold change of affinity: 1.7 fold

B28: H183/L072 VL R54V (antibody, name in Kabat numbering, V domains shown)
VH: B1 VH
VL: B1 VL with H59V
- fold change of affinity: 1.1 fold

B30: H183/L072 VL R54K (antibody, name in Kabat numbering, V domains shown)
VH: B1 VH
VL: B1 VL with H59K
- fold change of affinity: 1.7 fold

B32: H183/L072 VL R54T (antibody, name in Kabat numbering, V domains shown)
VH: B1 VH
VL: B1 VL with H59T
- fold change of affinity: 0.8 fold

The next lines start with the values.

- fold change of affinity: 1.6 fold
B2: H183/L072 VL S52F (antibody, name in Kabat numbering, V domains shown)
VH: B1 VH
VL: B1 VL with S57F, H59R

- fold change of affinity: 0.4 fold
B4: H183/L072 VL S26H (antibody, name in Kabat numbering, V domains shown)
VH: B1 VH
VL: B1 VL with S26H, H59R

- fold change of affinity: 0.7 fold
B5: H183/L072 VL S26K (antibody, name in Kabat numbering, V domains shown)
VH: B1 VH
VL: B1 VL with S26K, H59R

- fold change of affinity: 1 fold
B6: H183/L072 VL S52E (antibody, name in Kabat numbering, V domains shown)
VH: B1 VH
VL: B1 VL with S57E, H59R

- fold change of affinity: 0.8 fold
B10: H183/L072 VL S26Q (antibody, name in Kabat numbering, V domains shown)
VH: B1 VH
VL: B1 VL with S26Q, H59R

- fold change of affinity: 0.6 fold
B13: H183/L072 VL S26F (antibody, name in Kabat numbering, V domains shown)
VH: B1 VH
VL: B1 VL with S26F, H59R

- fold change of affinity: 0.6 fold
B14: H183/L072 VL S26V (antibody, name in Kabat numbering, V domains shown)
VH: B1 VH
VL: B1 VL with S26V, H59R

- fold change of affinity: 0.5 fold
B15: H183/L072 VL S26L (antibody, name in Kabat numbering, V domains shown)
VH: B1 VH
VL: B1 VL with S26L, H59R

- fold change of affinity: 0.9 fold
B16: H183/L072 VL S26G (antibody, name in Kabat numbering, V domains shown)
VH: B1 VH
VL: B1 VL with S26G, H59R

- fold change of affinity: 0.2 fold
B19: H183/L072 VL S26P (antibody, name in Kabat numbering, V domains shown)
VH: B1 VH
VL: B1 VL with S26P, H59R

- fold change of affinity: 1.2 fold
B20: H183/L072 VL S52A (antibody, name in Kabat numbering, V domains shown)
VH: B1 VH
VL: B1 VL with S57A, H59R

- fold change of affinity: 0.9 fold
B21: H183/L072 VL S26N (antibody, name in Kabat numbering, V domains shown)
VH: B1 VH
VL: B1 VL with S26N, H59R

- fold change of affinity: 0.4 fold
B23: H183/L072 VL S26Y (antibody, name in Kabat numbering, V domains shown)
VH: B1 VH
VL: B1 VL with S26Y, H59R

- fold change of affinity: 1.4 fold
B24: H183/L072 VL S26T (antibody, name in Kabat numbering, V domains shown)
VH: B1 VH
VL: B1 VL with S26T, H59R

- fold change of affinity: 0.6 fold
B25: H183/L072 VL S26M (antibody, name in Kabat numbering, V domains shown)
VH: B1 VH
VL: B1 VL with S26M, H59R

- fold change of affinity: 0.3 fold
B26: H183/L072 VL S26W (antibody, name in Kabat numbering, V domains shown)
VH: B1 VH
VL: B1 VL with S26W, H59R

- fold change of affinity: 0.5 fold
B29: H183/L072 VL S26I (antibody, name in Kabat numbering, V domains shown)
VH: B1 VH
VL: B1 VL with S26I, H59R

- fold change of affinity: 1 fold
B31: H183/L072 VL S52D (antibody, name in Kabat numbering, V domains shown)
VH: B1 VH
VL: B1 VL with S57D, H59R

- fold change of affinity: 0.5 fold
B33: H183/L072 VL S26R (antibody, name in Kabat numbering, V domains shown)
VH: B1 VH
VL: B1 VL with S26R, H59R
